{"source": "patent US20200262877A1", "about": "“ION CHANNEL-BINDING PEPTIDES AND METHODS OF USE THEREOF” (priority 2017, published 2020)", "key": {"[1]": {"target": "T1, Kv1.1 (Homo sapiens, UniProt Q09470)", "T1 construct": "host or cells: HEK293 or CHO", "assay": "cell-based", "format": "cell-based", "settings": "100% = no change, <100% = inhibition", "procedure,_shortened": "(§1)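 Peptides were tested in duplicate at final 20 μM and 200 nM, with concentration set by amino acid analysis, in HEPES-buffered saline. They were applied for at least 5 min to HEK293 or CHO cells transfected with each channel. Currents were expressed as % inhibition, 1-(Ipeptide/Icontrol)×100, or % activation, Ipeptide/Icontrol×100, against a channel-matched reference compound.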"}, "[2]": {"target": "T2, Kv1.2 (Homo sapiens, UniProt P16389)", "T2 construct": "host or cells: HEK293 or CHO", "assay": "cell-based", "format": "cell-based", "settings": "100% = no change, <100% = inhibition", "procedure,_shortened": "as §1"}, "[3]": {"target": "T3, Kv1.3 (Homo sapiens, UniProt P22001)", "T3 construct": "host or cells: HEK293 or CHO", "assay": "cell-based", "format": "cell-based", "settings": "100% = no change, <100% = inhibition", "procedure,_shortened": "as §1"}, "[4]": {"target": "T4, TRPA1 (Homo sapiens, UniProt O75762)", "T4 construct": "host or cells: HEK293 or CHO", "assay": "Ion channel panel (IonWorks Barracuda): TRPA1", "format": "cell-based", "settings": "100% = no change, <100% = inhibition", "procedure,_shortened": "as §1"}, "[5]": {"target": "T5, Kir2.1 (Homo sapiens, UniProt P63252)", "T5 construct": "host or cells: HEK293 or CHO", "assay": "Ion channel panel (IonWorks Barracuda): Kir2.1", "format": "cell-based", "settings": "100% = no change, <100% = inhibition", "procedure,_shortened": "as §1"}, "[6]": {"target": "T6, NR2A (Homo sapiens, UniProt Q12879)", "T6 construct": "host or cells: HEK293 or CHO", "assay": "Ion channel panel (IonWorks Barracuda): NR2A", "format": "cell-based", "settings": "100% = no change, <100% = inhibition", "procedure,_shortened": "as §1"}, "[7]": {"test_system": "GABA", "assay": "Ion channel panel (IonWorks Barracuda): GABA", "format": "cell-based", "settings": "100% = no change, <100% = inhibition", "procedure,_shortened": "as §1"}, "[8]": {"target": "T7, α3β4 (Homo sapiens, UniProt P30926+P32297)", "T7 construct": "host or cells: HEK293 or CHO", "assay": "Ion channel panel (IonWorks Barracuda): α3β4", "format": "cell-based", "settings": "100% = no change, <100% = inhibition", "procedure,_shortened": "as §1"}, "[9]": {"target": "hERG (Homo sapiens, UniProt Q12809)", "sequence (Q12809 whole entry)": "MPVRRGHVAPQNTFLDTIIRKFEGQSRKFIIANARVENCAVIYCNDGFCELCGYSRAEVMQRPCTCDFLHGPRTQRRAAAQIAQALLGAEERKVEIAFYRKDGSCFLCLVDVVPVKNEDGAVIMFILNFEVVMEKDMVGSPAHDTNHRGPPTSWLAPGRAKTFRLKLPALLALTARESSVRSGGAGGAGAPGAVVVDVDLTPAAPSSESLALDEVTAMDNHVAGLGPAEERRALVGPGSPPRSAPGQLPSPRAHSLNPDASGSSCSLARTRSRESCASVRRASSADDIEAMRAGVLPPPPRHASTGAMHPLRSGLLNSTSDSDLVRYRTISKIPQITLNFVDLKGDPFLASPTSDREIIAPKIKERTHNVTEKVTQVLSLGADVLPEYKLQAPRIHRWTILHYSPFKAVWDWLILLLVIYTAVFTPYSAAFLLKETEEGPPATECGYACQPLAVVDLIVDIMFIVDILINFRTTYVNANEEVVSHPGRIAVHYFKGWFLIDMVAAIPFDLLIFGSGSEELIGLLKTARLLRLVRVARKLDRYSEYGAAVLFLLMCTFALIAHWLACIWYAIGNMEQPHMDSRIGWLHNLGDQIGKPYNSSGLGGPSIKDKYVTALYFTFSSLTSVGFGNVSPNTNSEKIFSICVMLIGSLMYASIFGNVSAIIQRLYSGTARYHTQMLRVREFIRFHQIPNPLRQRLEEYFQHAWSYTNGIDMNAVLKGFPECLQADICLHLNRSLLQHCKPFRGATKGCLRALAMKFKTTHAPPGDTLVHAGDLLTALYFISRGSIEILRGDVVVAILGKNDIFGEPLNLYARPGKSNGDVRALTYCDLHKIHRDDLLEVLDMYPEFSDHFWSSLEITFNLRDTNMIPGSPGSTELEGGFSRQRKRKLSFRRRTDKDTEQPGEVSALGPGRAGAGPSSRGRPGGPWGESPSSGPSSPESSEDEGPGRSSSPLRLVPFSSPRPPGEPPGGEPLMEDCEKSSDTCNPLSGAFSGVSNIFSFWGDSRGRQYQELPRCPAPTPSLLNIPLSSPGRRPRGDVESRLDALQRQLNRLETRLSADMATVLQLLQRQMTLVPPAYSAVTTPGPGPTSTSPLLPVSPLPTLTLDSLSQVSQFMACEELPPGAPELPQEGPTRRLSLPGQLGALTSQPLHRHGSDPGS", "assay": "in vitro", "settings": "100% = no change, <100% = inhibition", "procedure,_shortened": "as §1"}, "[10]": {"target": "Nav1.5 (Homo sapiens, UniProt Q14524)", "sequence (Q14524 whole entry)": "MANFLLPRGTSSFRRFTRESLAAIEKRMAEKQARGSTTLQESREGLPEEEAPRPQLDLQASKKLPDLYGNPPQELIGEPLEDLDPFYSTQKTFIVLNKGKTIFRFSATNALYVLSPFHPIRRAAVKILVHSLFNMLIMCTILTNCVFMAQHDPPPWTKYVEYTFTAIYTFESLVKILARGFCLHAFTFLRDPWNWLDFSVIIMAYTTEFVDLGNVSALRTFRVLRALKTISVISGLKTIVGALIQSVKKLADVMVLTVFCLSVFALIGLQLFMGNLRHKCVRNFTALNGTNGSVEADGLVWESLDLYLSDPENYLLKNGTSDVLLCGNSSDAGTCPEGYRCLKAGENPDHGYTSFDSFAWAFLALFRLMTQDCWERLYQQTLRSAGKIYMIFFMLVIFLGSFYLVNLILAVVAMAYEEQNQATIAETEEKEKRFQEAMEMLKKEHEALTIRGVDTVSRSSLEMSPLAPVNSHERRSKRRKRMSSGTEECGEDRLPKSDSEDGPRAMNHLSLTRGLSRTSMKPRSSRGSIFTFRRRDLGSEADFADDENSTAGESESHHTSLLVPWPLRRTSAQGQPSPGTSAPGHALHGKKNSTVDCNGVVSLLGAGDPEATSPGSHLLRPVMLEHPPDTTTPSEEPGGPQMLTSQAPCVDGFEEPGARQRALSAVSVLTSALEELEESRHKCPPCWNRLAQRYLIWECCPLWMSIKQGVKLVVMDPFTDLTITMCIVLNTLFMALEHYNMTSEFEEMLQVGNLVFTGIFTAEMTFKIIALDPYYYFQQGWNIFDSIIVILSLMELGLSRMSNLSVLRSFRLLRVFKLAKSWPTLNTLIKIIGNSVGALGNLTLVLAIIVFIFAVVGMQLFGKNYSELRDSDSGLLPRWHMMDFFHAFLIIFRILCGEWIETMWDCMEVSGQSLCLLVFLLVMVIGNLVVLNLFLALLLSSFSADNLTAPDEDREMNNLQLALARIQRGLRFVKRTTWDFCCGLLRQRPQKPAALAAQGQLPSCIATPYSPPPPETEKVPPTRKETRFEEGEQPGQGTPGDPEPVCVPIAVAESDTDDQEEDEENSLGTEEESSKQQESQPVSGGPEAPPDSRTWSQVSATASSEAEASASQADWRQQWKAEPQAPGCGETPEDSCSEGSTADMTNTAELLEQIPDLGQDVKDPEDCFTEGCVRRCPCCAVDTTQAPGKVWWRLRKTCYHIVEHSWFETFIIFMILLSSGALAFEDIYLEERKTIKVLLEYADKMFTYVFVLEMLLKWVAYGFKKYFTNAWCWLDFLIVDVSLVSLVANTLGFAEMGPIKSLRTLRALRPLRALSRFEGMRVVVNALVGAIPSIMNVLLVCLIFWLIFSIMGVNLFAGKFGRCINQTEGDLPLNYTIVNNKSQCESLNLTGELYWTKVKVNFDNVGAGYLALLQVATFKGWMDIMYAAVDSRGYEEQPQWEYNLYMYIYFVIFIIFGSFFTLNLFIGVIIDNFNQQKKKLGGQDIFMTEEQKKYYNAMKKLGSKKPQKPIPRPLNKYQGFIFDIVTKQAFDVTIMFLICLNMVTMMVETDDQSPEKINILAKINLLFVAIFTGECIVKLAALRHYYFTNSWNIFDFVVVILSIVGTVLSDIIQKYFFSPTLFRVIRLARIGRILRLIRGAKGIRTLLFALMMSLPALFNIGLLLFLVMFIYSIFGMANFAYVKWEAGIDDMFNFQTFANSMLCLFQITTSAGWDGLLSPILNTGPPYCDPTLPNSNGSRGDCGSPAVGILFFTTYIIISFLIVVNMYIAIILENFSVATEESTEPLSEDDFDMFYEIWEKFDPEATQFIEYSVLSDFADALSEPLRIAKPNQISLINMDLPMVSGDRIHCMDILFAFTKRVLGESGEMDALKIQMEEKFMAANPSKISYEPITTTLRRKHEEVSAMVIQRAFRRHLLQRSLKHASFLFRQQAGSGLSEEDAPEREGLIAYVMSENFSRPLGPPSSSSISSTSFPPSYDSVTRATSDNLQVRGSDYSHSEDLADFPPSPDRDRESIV", "assay": "in vitro", "settings": "100% = no change; for Activity of Nav1.5 with peptide, expressed as a percentage of the reference compound: peptide at 0.2 μM; for Activity of Nav1.5 with peptide (percentage of the reference compound): peptide at 20 μM", "procedure,_shortened": "as §1"}, "[11]": {"target": "T8, Nav1.7 (Homo sapiens, UniProt Q15858)", "T8 construct": "host or cells: HEK293 or CHO", "T8 sequence (Q15858 whole entry)": "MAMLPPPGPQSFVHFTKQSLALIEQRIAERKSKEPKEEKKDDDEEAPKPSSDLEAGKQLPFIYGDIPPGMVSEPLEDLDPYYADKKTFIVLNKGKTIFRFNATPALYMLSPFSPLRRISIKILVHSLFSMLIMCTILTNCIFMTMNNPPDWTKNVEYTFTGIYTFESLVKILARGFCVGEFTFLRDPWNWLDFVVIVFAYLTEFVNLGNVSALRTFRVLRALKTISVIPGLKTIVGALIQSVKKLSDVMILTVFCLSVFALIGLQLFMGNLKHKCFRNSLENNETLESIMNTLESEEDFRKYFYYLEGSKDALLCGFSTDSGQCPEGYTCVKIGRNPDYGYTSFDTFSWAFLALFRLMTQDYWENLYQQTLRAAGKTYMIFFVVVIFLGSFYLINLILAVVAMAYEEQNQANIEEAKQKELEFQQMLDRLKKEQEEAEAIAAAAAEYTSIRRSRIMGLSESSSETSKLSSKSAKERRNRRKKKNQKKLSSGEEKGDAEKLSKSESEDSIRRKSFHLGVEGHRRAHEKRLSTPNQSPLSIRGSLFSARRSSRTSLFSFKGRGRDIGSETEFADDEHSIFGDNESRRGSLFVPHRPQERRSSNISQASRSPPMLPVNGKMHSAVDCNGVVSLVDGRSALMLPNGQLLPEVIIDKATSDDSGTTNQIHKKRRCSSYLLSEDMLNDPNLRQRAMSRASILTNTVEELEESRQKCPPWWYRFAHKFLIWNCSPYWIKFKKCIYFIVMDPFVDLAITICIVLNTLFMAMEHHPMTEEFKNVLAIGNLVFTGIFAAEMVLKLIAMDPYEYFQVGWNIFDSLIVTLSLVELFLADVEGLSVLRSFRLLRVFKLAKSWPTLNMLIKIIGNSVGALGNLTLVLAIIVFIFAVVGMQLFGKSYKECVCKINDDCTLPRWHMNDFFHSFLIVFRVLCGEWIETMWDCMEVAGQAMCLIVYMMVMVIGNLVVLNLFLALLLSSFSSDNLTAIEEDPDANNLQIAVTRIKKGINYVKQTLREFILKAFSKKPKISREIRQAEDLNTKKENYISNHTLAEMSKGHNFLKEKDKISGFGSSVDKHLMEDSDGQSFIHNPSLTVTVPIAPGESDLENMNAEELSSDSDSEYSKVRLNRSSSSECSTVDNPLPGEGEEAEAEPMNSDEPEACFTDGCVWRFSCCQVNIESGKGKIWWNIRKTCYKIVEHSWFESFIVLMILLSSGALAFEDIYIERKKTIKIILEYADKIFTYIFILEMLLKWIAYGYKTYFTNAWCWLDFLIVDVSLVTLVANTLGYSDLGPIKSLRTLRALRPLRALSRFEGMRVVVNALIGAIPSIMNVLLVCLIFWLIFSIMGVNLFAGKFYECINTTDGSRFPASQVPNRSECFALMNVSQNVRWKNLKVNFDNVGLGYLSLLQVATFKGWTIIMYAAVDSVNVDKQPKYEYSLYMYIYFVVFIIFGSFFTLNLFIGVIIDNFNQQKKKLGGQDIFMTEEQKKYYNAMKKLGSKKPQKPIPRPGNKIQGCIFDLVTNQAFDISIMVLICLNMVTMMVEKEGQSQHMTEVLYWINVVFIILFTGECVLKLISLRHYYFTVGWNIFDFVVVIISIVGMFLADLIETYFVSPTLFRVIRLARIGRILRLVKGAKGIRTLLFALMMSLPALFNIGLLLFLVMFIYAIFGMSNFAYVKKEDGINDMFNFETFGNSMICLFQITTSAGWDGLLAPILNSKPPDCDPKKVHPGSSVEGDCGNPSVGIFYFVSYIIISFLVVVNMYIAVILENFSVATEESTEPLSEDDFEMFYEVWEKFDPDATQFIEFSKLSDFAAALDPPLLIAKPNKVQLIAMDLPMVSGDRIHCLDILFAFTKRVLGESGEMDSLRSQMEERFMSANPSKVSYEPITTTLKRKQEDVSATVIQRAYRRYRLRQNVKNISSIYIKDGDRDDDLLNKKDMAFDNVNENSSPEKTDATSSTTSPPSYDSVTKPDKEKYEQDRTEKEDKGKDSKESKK", "assay": "cell-based", "format": "cell-based", "settings": "100% = no change; for Activity of Nav1.7 with peptide, expressed as a percentage of the reference compound: peptide at 0.2 μM; for Activity of Nav1.7 with peptide (percentage of the reference compound): peptide at 20 μM"}, "[12]": {"target": "T9, α4β2 (Homo sapiens, UniProt P17787+P43681)", "T9 construct": "host or cells: HEK293 or CHO", "assay": "Ion channel panel (IonWorks Barracuda): α4β2", "format": "cell-based", "settings": "100% = no change, <100% = inhibition", "procedure,_shortened": "as §1"}, "[13]": {"target": "T10, TRPV1 (Homo sapiens, UniProt Q8NER1)", "T10 construct": "host or cells: HEK293 or CHO", "assay": "Ion channel panel (IonWorks Barracuda): TRPV1", "format": "cell-based", "settings": "100% = no change, <100% = inhibition", "procedure,_shortened": "as §1"}, "[14]": {"target": "T11, 5HT3a (Homo sapiens, UniProt P46098)", "T11 construct": "host or cells: HEK293 or CHO", "T11 sequence (P46098 whole entry, looked up)": "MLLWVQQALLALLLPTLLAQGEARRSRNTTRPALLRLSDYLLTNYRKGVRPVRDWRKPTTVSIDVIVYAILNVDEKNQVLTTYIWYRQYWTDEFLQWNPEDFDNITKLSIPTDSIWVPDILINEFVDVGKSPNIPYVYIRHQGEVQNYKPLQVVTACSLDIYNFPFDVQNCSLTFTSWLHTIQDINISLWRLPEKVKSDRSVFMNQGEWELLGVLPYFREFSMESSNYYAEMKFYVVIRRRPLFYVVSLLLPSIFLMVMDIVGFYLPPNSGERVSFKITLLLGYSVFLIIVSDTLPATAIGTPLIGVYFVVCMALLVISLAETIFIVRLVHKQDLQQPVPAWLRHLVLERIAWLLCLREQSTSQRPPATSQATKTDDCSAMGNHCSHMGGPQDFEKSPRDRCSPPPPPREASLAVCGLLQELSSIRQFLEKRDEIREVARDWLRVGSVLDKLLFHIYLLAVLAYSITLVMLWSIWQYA", "assay": "Ion channel panel (IonWorks Barracuda): 5HT3a", "format": "cell-based", "procedure,_shortened": "as §1"}, "[15]": {"target": "T12, Cav2.1 (Homo sapiens, UniProt O00555)", "T12 construct": "host or cells: HEK293 or CHO", "assay": "cell-based", "settings": "100% = no change, <100% = inhibition", "procedure,_shortened": "as §1"}, "[16]": {"target": "T13, Kv2.1 (Homo sapiens, UniProt Q14721)", "T13 construct": "host or cells: HEK293 or CHO", "assay": "cell-based", "settings": "100% = no change, <100% = inhibition", "procedure,_shortened": "as §1"}, "[17]": {"target": "T14, Cav2.2 (Homo sapiens, UniProt Q00975)", "T14 construct": "host or cells: HEK293 or CHO", "assay": "cell-based", "settings": "100% = no change, <100% = inhibition", "procedure,_shortened": "as §1"}, "[18]": {"target": "T15, NR2B (Homo sapiens, UniProt Q13224)", "T15 construct": "host or cells: HEK293 or CHO", "assay": "Ion channel panel (IonWorks Barracuda): NR2B", "format": "cell-based", "settings": "100% = no change, <100% = inhibition", "procedure,_shortened": "as §1"}, "[19]": {"settings": "first of two Nav1.5 columns (probably TP1)"}, "[20]": {"settings": "second of two Nav1.5 columns (probably TP2)"}, "[21]": {"settings": "first of two Nav1.7 columns (probably TP1)"}, "[22]": {"settings": "second of two Nav1.7 columns (probably TP2)"}}}
{"substance": "5 (GSGVPINVKCRGSRDCLDPCKKAGMRFGKCINSKCHCTP) [compound 5]", "values": [{"measurement": "Activity of Kv1.1 with peptide, expressed as a percentage of the reference compound", "setting": "[1]; peptide at 0.2 μM", "result": 86, "unit": "%"}, {"measurement": "Activity of Kv1.1 with peptide (percentage of the reference compound)", "setting": "[1]; peptide at 20 μM", "result": 55, "unit": "%"}, {"measurement": "Activity of Kv1.2 with peptide, expressed as a percentage of the reference compound", "setting": "[2]; peptide at 0.2 μM", "result": 89, "unit": "%"}, {"measurement": "Activity of Kv1.2 with peptide (percentage of the reference compound)", "setting": "[2]; peptide at 20 μM", "result": 73, "unit": "%"}, {"measurement": "Activity of Kv1.3 with peptide, expressed as a percentage of the reference compound", "setting": "[3]; peptide at 0.2 μM", "result": 98, "unit": "%"}, {"measurement": "Activity of Kv1.3 with peptide (percentage of the reference compound)", "setting": "[3]; peptide at 20 μM", "result": 28, "unit": "%"}, {"measurement": "Activity of TRPA1 with peptide, expressed as a percentage of the reference compound", "setting": "[4]; peptide at 0.2 μM", "result": 119, "unit": "%"}, {"measurement": "Activity of TRPA1 with peptide (percentage of the reference compound)", "setting": "[4]; peptide at 20 μM", "result": 75, "unit": "%"}, {"measurement": "Activity of Kir2.1 with peptide, expressed as a percentage of the reference compound", "setting": "[5]; peptide at 0.2 μM", "result": 103, "unit": "%"}, {"measurement": "Activity of Kir2.1 with peptide (percentage of the reference compound)", "setting": "[5]; peptide at 20 μM", "result": 86, "unit": "%"}, {"measurement": "Activity of NR2A with peptide, expressed as a percentage of the reference compound", "setting": "[6]; peptide at 0.2 μM", "result": 109, "unit": "%"}, {"measurement": "Activity of NR2A with peptide (percentage of the reference compound)", "setting": "[6]; peptide at 20 μM", "result": 86, "unit": "%"}, {"measurement": "Activity of GABA with peptide, expressed as a percentage of the reference compound", "setting": "[7]; peptide at 0.2 μM", "result": 109, "unit": "%"}, {"measurement": "Activity of GABA with peptide (percentage of the reference compound)", "setting": "[7]; peptide at 20 μM", "result": 114, "unit": "%"}, {"measurement": "Activity of a3b4 with peptide, expressed as a percentage of the reference compound", "setting": "[8]; peptide at 0.2 μM", "result": 104, "unit": "%"}, {"measurement": "Activity of a3b4 with peptide (percentage of the reference compound)", "setting": "[8]; peptide at 20 μM", "result": 90, "unit": "%"}, {"measurement": "Activity of hERG with peptide, expressed as a percentage of the reference compound", "setting": "[9]; peptide at 0.2 μM", "result": 106, "unit": "%"}, {"measurement": "Activity of hERG with peptide (percentage of the reference compound)", "setting": "[9]; peptide at 20 μM", "result": 67, "unit": "%"}, {"measurement": "Activity of Nav1.5 with peptide, expressed as a percentage of the reference compound", "setting": "[10]; [19]", "result": 107, "unit": "%"}, {"measurement": "Activity of Nav1.5 with peptide, expressed as a percentage of the reference compound", "setting": "[10]; [20]", "result": 107, "unit": "%"}, {"measurement": "Activity of Nav1.5 with peptide (percentage of the reference compound)", "setting": "[10]; [19]", "result": 103, "unit": "%"}, {"measurement": "Activity of Nav1.5 with peptide (percentage of the reference compound)", "setting": "[10]; [20]", "result": 105, "unit": "%"}, {"measurement": "Activity of Nav1.7 with peptide, expressed as a percentage of the reference compound", "setting": "[11]; [21]", "result": 98, "unit": "%"}, {"measurement": "Activity of Nav1.7 with peptide, expressed as a percentage of the reference compound", "setting": "[11]; [22]", "result": 109, "unit": "%"}, {"measurement": "Activity of Nav1.7 with peptide (percentage of the reference compound)", "setting": "[11]; [21]", "result": 79, "unit": "%"}, {"measurement": "Activity of Nav1.7 with peptide (percentage of the reference compound)", "setting": "[11]; [22]", "result": 66, "unit": "%"}, {"measurement": "Activity of a4b2 with peptide, expressed as a percentage of the reference compound", "setting": "[12]; peptide at 0.2 μM", "result": 83, "unit": "%"}, {"measurement": "Activity of a4b2 with peptide (percentage of the reference compound)", "setting": "[12]; peptide at 20 μM", "result": 93, "unit": "%"}, {"measurement": "Activity of TRPV1 with peptide, expressed as a percentage of the reference compound", "setting": "[13]; peptide at 0.2 μM", "result": 101, "unit": "%"}, {"measurement": "Activity of TRPV1 with peptide (percentage of the reference compound)", "setting": "[13]; peptide at 20 μM", "result": 101, "unit": "%"}, {"measurement": "Activity of 5HT3a with peptide (percentage of the reference compound)", "setting": "[14]", "result": 80, "unit": "%"}, {"measurement": "Activity of 5HT3a with peptide, expressed as a percentage of the reference compound", "setting": "[14]", "result": 94, "unit": "%"}, {"measurement": "Activity of Cav2.1 with peptide, expressed as a percentage of the reference compound", "setting": "[15]; peptide at 0.2 μM", "result": 100, "unit": "%"}, {"measurement": "Activity of Cav2.1 with peptide (percentage of the reference compound)", "setting": "[15]; peptide at 20 μM", "result": 121, "unit": "%"}, {"measurement": "Activity of Kv2.1 with peptide, expressed as a percentage of the reference compound", "setting": "[16]; peptide at 0.2 μM", "result": 110, "unit": "%"}, {"measurement": "Activity of Kv2.1 with peptide (percentage of the reference compound)", "setting": "[16]; peptide at 20 μM", "result": 109, "unit": "%"}, {"measurement": "Activity of Cav2.2 with peptide, expressed as a percentage of the reference compound", "setting": "[17]; peptide at 0.2 μM", "result": 94, "unit": "%"}, {"measurement": "Activity of Cav2.2 with peptide (percentage of the reference compound)", "setting": "[17]; peptide at 20 μM", "result": 117, "unit": "%"}, {"measurement": "Activity of NR2B with peptide, expressed as a percentage of the reference compound", "setting": "[18]; peptide at 0.2 μM", "result": 112, "unit": "%"}, {"measurement": "Activity of NR2B with peptide (percentage of the reference compound)", "setting": "[18]; peptide at 20 μM", "result": 95, "unit": "%"}]}
